Laboratory results published in patent US20240327535A1 (EISAI R AND D MANAGEMENT, published 2024).
Changes are numbered by the printed parent chain. Where two headings read alike, the source gives them in different places.

B1: AB214 (antibody, human IgG1, kappa, V domains shown)
VH: QVQLVQSGAEVKKPGSSVKVSCKASGGTFSNYWIHWVRQAPGQGLEWMGATYRSQSDTYYNQKYKSRVTITADKSTSTAYMELSSLRSEDTAVYYCARGAVYHGYDVIDNWGQGTLVTVSS
VL: DIQMTQSPSSLSASVGDRVTITCRASQSISSYLNWYQQKPGKAPKLLIYATSNLQIGVPSRFSGSGSGTDFTLTISSLQPEDFATYYCQQYRRIPWTFGQGTKLEIKR
notes: IgG1 kappa
B2: AB213 (antibody, human IgG1, kappa, V domains shown)
VH: B1 VH with S30T, A50G, Q55H, D57T, Y64F
VL: B1 VL with Y91F, I94L
notes: IgG1 kappa
B3: AB215 (antibody, human IgG1, kappa, V domains shown)
VH: B1 VH with S30T, A50G, Q55H, D57T, Y64F
VL: B1 VL
notes: IgG1 kappa
B4: AB217 (antibody, human IgG1, kappa, V domains shown)
VH: B1 VH with S30T, Q55H, N61A
VL: B1 VL with L33I, I56S
notes: IgG1 kappa
B5: AB200-ADL5-D4-05 (antibody, human IgG1, kappa, V domains shown)
VH: B1 VH with I34M, S54G, Q55H, Y64F, S66G, V101I, H103D, I108L
VL: B1 VL with R24S, S28D, S31N, A50Y, Q55H, I56S, R93K, I94L
modifications: ADL5-D4 linker-payload on cysteine residues of the antibody, DAR 4.39
notes: antibody-drug conjugate
B6: AB200-mcMMAF-05 (antibody, human IgG1, kappa, V domains shown)
VH: B1 VH with I34M, S54G, Q55H, Y64F, S66G, V101I, H103D, I108L
VL: B1 VL with R24S, S28D, S31N, A50Y, Q55H, I56S, R93K, I94L
modifications: mcMMAF (ADL10-MMAF) linker-payload on cysteine residues of the antibody, DAR 4.0
notes: antibody-drug conjugate; also called AB200-ADL10-MMAF
B7: AB200-(2Vk44)_R2-VH-v75 (Fab, V domains shown)
VH: B1 VH with S54I
VL: B1 VL with L33I, I94L, T97S
notes: also called AB200_VH2-75_VK2-44
B8: AB200-(2Vk8)_R2-CDR1-hs-v4 (Fab, V domains shown)
VH: B1 VH with N31S, W33A, H35S, Y59F, Y64F
VL: B1 VL with L33I, Y91F, R93K, I94L, T97S
B9: AB200-(2Vk8)_R2-CDR2-hs-v2 (Fab, V domains shown)
VH: QVQLVQSGAEVKKPGSSVKVSCKASGGSFSNYWIHWVRQAPGQGLEWMGGIIPIFGTANYAQKFQGRVTITADKSTSTAYMELSSLRSEDTAVYYCARGAIFHGYDVIDNWGQGTLVTVSS
VL: B1 VL with L33I, Y91F, R93K, I94L, T97S

Legend:
[1] = target: T1, human BCMA on NCI-H929, OPM2 and Raji cells (human, UniProt Q02223 1-184); assay: flow cytometry, OPM2 cells
T1 construct: endogenous BCMA of human cell lines; also called TNFRSF17; CD269
T1 chain: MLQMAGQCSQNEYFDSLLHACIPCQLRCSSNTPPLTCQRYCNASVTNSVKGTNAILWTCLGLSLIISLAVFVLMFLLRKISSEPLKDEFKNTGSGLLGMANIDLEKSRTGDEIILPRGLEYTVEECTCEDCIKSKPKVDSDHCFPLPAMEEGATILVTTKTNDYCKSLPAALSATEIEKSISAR

[2] = target: T1, human BCMA on NCI-H929, OPM2 and Raji …; assay: flow cytometry, Raji cells
[3] = target: T1, human BCMA on NCI-H929, OPM2 and Raji …; assay: flow cytometry, NCI-H929 cells
[4] = target: T1, human BCMA on NCI-H929, OPM2 and Raji …; assay: flow cytometry on NCI-H929 cells (BCMA high), fluorescent anti-human IgG1 secondary antibody, MFI against antibody conc.
[5] = target: T1, human BCMA on NCI-H929, OPM2 and Raji …; assay: flow cytometry, NCI-H929 cells
[6] = target: T1, human BCMA on NCI-H929, OPM2 and Raji …; assay: flow cytometry, NCI-H929 cells
[7] = target: T1, human BCMA on NCI-H929, OPM2 and Raji …; assay: flow cytometry on NCI-H929 cells (BCMA high), fluorescent anti-human IgG1 secondary antibody, MFI against test article concentration
[8] = target: T2, extracellular domain of human BCMA (human, UniProt Q02223 1-54); assay: Octet BLI; Fab 200 nM
T2 construct: amine-linked to Octet AR2G tips; also called hsBCMA; BCMA (human)
T2 sequence: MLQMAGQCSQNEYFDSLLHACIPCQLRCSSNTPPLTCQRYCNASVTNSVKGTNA

[9] = target: T3, extracellular domain of rhesus monkey BCMA (rhesus monkey, UniProt F7FFA0 1-53); assay: Octet BLI; Fab 200 nM
T3 construct: extracellular domain; also called RhBCMA

[10] = target: T2, extracellular domain of human BCMA; assay: Octet BLI; Fab 200 nM; remark: listed apart in the source
[11] = target: T3, extracellular domain of rhesus monkey …; assay: Octet BLI; Fab 200 nM; remark: listed apart in the source
[12] = target: T2, extracellular domain of human BCMA; assay: Octet BLI; Fab 200 nM; remark: listed apart in the source
[13] = target: T3, extracellular domain of rhesus monkey …; assay: Octet BLI; Fab 200 nM; remark: listed apart in the source

T3 sequence (F7FFA0 entry or part of it): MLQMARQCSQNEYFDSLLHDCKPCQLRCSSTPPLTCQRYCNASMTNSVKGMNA

Row | Binder | Kd [1] [nM] | Kd [2] [nM] | Kd [3] [nM] | EC50 (read off the curve) [4] [nM] | further results
1 | B1 | 2.12 | 5.66 | 2.84 | ~3 | –
2 | B2 | 1.96 | 8.83 | 4.26 | ~4 | –
3 | B3 | 3.63 | 11.2 | 8.06 | ~7 | –
4 | B4 | 2.33 | 7.31 | 3.38 | ~3 | –
5 | B5 | – | – | – | – | Kd [5]: 6 to 10 nM; Kd [6]: 9.8 nM; EC50 (read off the curve) [7]: ~9 nM
6 | B6 | – | – | – | – | Kd [5]: 6 to 10 nM; EC50 (read off the curve) [7]: ~6 nM
7 | B7 | – | – | – | – | Kd [8]: 1.07 nM; Kd [9]: 5.53 nM; Kd [10]: 0.8 nM; Kd [11]: 5.22 nM
8 | B8 | – | – | – | – | Kd [12]: 591 nM; Kd [13]: 773 nM
9 | B9 | – | – | – | – | Kd [12]: 151 nM
